Data: US20070041999A1 (published 2007)

Target: the molecule itself
Assay: disassembly by dialysis, size exclusion chromatography / SEC-HPLC; self-association of capsid protein
Experimental: Dissasembly of plant produced CCMV virus particles: Purified CCMV was disassembled by dialysis against buffer A (50 mM Tris HCl pH7.5, 500 mM CaCl₂, 1 mM DTT, 0.2 mM PMSF) for 16-29 hours at 4° C. The disassembled virus was centrifuged at 14,000 rpm for 15 min at 4° C. to pellet the viral RNA. The remaining supernatant was dialyzed against buffer B (200 mM Tris HCl pH7.5, 1M NaCl, 1 mM DTT, 0.2 mM PMSF) for 2 hours at 4° C. The CCMV dissasembled into capsid protein dimers that were further purified by FPLC Superose 12 size exclusion chromatography. The diassambled CCMV was analyzed by SEC-HPLC (FIG. 8).

B1: Wild type CCMV coat protein encoded by sgRNA4 (other)
chain: STVGTGKLTRAQRRAAARKNKRNTRVVQPVIVEPIASGQGKAIKAWTGYSVSKWTASCAAAEAKVTSAITISLPNELSSERNKQLKVGRVLLWLGLLPSVSGTVKSCVTETQTTAAASFQVALAVADNSKDVVAAMYPEAFKGITLEQLTADLTIYLYSSAALTEGDVIVHLEVEHVRPTFDDSFTPVY
notes: also called CCMV CP; CCMV capsid protein
binding result: binds
